These results are taken from patent US20210292753A1.

This assay has as its target SAMHD1 (T592A), constitutively active SAM domain and HD domain-containing protein 1 (UniProt Q9Y3Z3). Nature of the assay: cell-based or functional assay.

Chain of SAMHD1 (T592A), constitutively active SAM domain and HD domain-containing protein 1 (Q9Y3Z3 whole entry T592A, the tested form may be a part): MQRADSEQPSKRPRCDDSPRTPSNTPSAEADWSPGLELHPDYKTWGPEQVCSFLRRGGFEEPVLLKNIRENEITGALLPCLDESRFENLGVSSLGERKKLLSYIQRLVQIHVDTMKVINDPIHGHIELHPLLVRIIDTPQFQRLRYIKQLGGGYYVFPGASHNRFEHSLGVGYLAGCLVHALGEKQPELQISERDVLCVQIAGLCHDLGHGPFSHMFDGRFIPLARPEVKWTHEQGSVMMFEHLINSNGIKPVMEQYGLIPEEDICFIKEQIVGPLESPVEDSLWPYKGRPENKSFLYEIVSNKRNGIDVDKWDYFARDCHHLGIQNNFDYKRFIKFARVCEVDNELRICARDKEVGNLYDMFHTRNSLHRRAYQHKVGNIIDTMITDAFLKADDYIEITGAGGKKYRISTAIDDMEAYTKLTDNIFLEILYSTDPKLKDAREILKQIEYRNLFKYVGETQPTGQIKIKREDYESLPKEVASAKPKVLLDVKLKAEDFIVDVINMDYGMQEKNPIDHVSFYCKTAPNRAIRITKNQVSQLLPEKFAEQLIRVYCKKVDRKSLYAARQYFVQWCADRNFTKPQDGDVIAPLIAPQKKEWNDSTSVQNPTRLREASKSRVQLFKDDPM

Substance “VPX^ROD (Vpx from the ROD HIV-2 isolate) (from UniProt P06939 1-112)” returned an editing efficiency, mutation 65-nt from the nick, relative to no SAMHD1^p- of 78%. As for “VPX^RH2-1 (variant of VPX from HIV-2 clinical isolate RH2-1) (from UniProt P20881 1-112)”, the editing efficiency, RW2I, mutation 2-nt from the nick, SAMHD1 (T592A) coexpressed was determined as 64%.
